Laboratory results as given in the supplement of paper PMC9732359.
± gives the uncertainty stated by the source.

Assay: protein stability index of a GFP-peptide fusion (yeast GPS) (PSI 1-4); higher = more stable; sorted into four equal gates, so the index is relative within each strain
Summary of the method: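 Peptides tiling yeast proteins in 17-residue segments were fused downstream of GFP, with Cherry expressed from the same plasmid. As a pooled library in yeast, mid-log cultures grown in leucine-free medium were sorted into four equal gates by GFP/Cherry fluorescence ratio. Gate plasmids were PCR-amplified and Illumina-sequenced, and barcodes linked reads to strains. Each peptide received a protein stability index equal to the sum of each gate's read frequency times its gate number.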

Sequence	protein stability index (pdr5∆)	protein stability index (san1∆)	protein stability index (doa10∆)	protein stability index (ubr1∆)
EIRRSLSLNLGDYGSAK [POP5]	3.06 ± 0.09	3.05 ± 0.18		
LVYQYKGAGLSMGTMIC [PRE2]	2.3 ± 0.097	2.18 ± 0.16	2.06 ± 0.083	2.24 ± 0.11
ENDTNMNETLNLKVELK [SMC4]	3.17 ± 0.084	3.09 ± 0.13	3.43 ± 0.2	2.99 ± 0.077
LQDELHKVSSQSTNLNR [YCS4]	3.06 ± 0.068	3.05 ± 0.045	2.97 ± 0.061	2.87 ± 0.053
PSEDVAAPKKTRKAVRP [RPL6B]	3.08 ± 0.1	2.93 ± 0.085	2.74 ± 0.089	2.91 ± 0.073
EKIDGMDVDSVKTTLVS [RPC82]	2.78 ± 0.12	2.73 ± 0.11	2.54 ± 0.11	2.1 ± 0.29
NFLIKLSELSPGIMLRQ [YCS4]	2.98 ± 0.1	3.1 ± 0.094	2.77 ± 0.093	2.95 ± 0.093
MGVRTFSQKEMAFNLLG [FAS2]	1.9 ± 0.057	2.15 ± 0.083	2.1 ± 0.078	2.21 ± 0.046
HTSIRETLENGETRMKM [SMC2]	2.79 ± 0.13	2.85 ± 0.12	2.65 ± 0.11	2.95 ± 0.083
LRKNKLGYARFILLDRL [SMC4]	1.25 ± 0.048	1.14 ± 0.14	1.15 ± 0.042	1.15 ± 0.055
RELLVEGYGLRDVMCTD [RPO31]	2.57 ± 0.063	2.77 ± 0.066	2.36 ± 0.063	2.95 ± 0.056
SARNYDKFKLNENDLKT [SMC1]	2.46 ± 0.088	2.35 ± 0.22	2.55 ± 0.093	2.53 ± 0.063
MNFISKEEFIMMVNISV [PCI8]	1.25 ± 0.046	1.32 ± 0.16	1.41 ± 0.059	1.37 ± 0.063
SVKGKVVIDAFRLIDTG [RPN11]	2.38 ± 0.099	1.92 ± 0.15	1.83 ± 0.12	1.79 ± 0.061
YGYFSVGKRVPIVEDRR [SIR4]	2.28 ± 0.1	2.16 ± 0.13	3.12 ± 0.12	2.75 ± 0.26
MYPSPTGVMIGIDLAYN [PRP8]	2.1 ± 0.07	1.97 ± 0.081	2.11 ± 0.074	2.07 ± 0.048
KDWTDTFVYILEKLIFD [SRB8]	2.72 ± 0.058	2.73 ± 0.074	2.39 ± 0.067	1.93 ± 0.052
GMVKLNEYPVADAVTKD [REC8]	2.87 ± 0.2	3.28 ± 0.043		3.36 ± 0.052
DEADKMIDLGFEDQVTN [PRP28]	3.34 ± 0.11	3.16 ± 0.11	3.16 ± 0.098	3.1 ± 0.061
RIIRKKIFIAVVWYQRL [RRI2]	1.27 ± 0.036	1.27 ± 0.084	1.28 ± 0.042	1.25 ± 0.034
PSDMVIPDHLAELIPEL [SNF12]	3 ± 0.069	2.88 ± 0.11	3.09 ± 0.08	2.79 ± 0.042
MNNETSGKETASAPLCS [DLS1]	3.21 ± 0.06	3.18 ± 0.055	3.01 ± 0.067	3.12 ± 0.063
LTNQQPKNLSTPSTSSN [CSE2]	2.84 ± 0.068	2.67 ± 0.066	2.94 ± 0.067	2.79 ± 0.059
THSYNFMRQNLEWNMAN [RPC82]	1.75 ± 0.057	1.74 ± 0.07	2.45 ± 0.064	2.24 ± 0.048
RLKFGHRLIATHTNLER [SNF2]	2.04 ± 0.054	2.29 ± 0.067	2.41 ± 0.064	2.5 ± 0.045
RAIDSLIQKGYLQRGDD [CDC53]	1.94 ± 0.069	2.17 ± 0.12	1.68 ± 0.066	2.06 ± 0.077

Sequence	protein stability index (pdr5∆)	protein stability index (san1∆)	protein stability index (doa10∆)	protein stability index (ubr1∆)
LISIISSVIQNYDIITA [YML103C/NUP188]	1.42 ± 0.1		1.81 ± 0.083	1.3 ± 0.2
VPRKFKHFIQGGSFGNR [RPL7A]	2.85 ± 0.1	3.13 ± 0.12	3.36 ± 0.13	2.17 ± 0.055
VGDVVGGALDNPFEDDM [BRN1]	3.37 ± 0.15	3.58 ± 0.21		3.16 ± 0.11
QYEHLIKGIREYEEWQK [YDL116W/NUP84]	2.99 ± 0.079	2.88 ± 0.13	3.11 ± 0.1	2.62 ± 0.083
ALPRGARTATVSKKWAA [RPL14A]	2.23 ± 0.065	1.96 ± 0.1	2.25 ± 0.067	2.14 ± 0.056
EMGKTDKSTKTAEAPTL [YOR098C/NUP1]	3.25 ± 0.15	2.89 ± 0.064	3.1 ± 0.16	2.86 ± 0.14
GVDLKLKYSKRRSLKKQ [CSN12]	2.75 ± 0.069	3.27 ± 0.15	2.89 ± 0.074	3.05 ± 0.036
PGSVEEVDKSKLITTYI [YDL116W/NUP84]	3.33 ± 0.26		3.39 ± 0.18	3.42 ± 0.18
LGKYEFSKILPAALDGL [ESC2]	2.67 ± 0.072	1.61 ± 0.13	2.28 ± 0.055	2 ± 0.086
GWKPYYKLFIWLVVPTI [YML031W/NDC1]	1.2 ± 0.044	1.19 ± 0.09	1.28 ± 0.049	1.16 ± 0.044
RQNKVQHQRIVAFVCSP [RPN10]	1.4 ± 0.12		1.24 ± 0.069	1.42 ± 0.12
PQLISDKFSPEDGLGPL [ARP7]	2.83 ± 0.067	2.6 ± 0.062	2.84 ± 0.072	2.61 ± 0.055
EVLNRVASRHPSESEHP [YDL116W/NUP84]	3.17 ± 0.11	2.99 ± 0.084	2.94 ± 0.15	3.24 ± 0.075
VLRTALVHDGLARGLRE [RPS12]	2.79 ± 0.16	2.77 ± 0.096	2.57 ± 0.17	3.25 ± 0.1
QSSESFDDSDITKFALF [YML103C/NUP188]	2.23 ± 0.071	2.48 ± 0.083	2.44 ± 0.1	2.46 ± 0.075
LLRLASKSTSMKLSMPP [POP1]	2.76 ± 0.065	2.69 ± 0.059	2.75 ± 0.064	2.81 ± 0.049
STVAKFLARVIKEKFDE [IRR1]	2.33 ± 0.082	3.36 ± 0.22	2.86 ± 0.1	2.16 ± 0.09
VGLRSNTHAVLVALKRN [PRE5]	1.45 ± 0.039	1.15 ± 0.093	1.2 ± 0.037	1.21 ± 0.033
VKKILPLYARYINVNPQ [ECM29]	2.15 ± 0.051	3.06 ± 0.051	2.43 ± 0.056	2.72 ± 0.04
SNVNSDIYFKLKKLEKE [RPT3]	2.73 ± 0.09	2.93 ± 0.086	3.22 ± 0.09	3.03 ± 0.072
AVLSYYKVDAEGKVTKL [RPS31]	2.99 ± 0.13	3.03 ± 0.083	2.98 ± 0.11	3.27 ± 0.065
TPGLTFNAIDLARHLPA [RPC82]	2.73 ± 0.061	2.77 ± 0.056	2.71 ± 0.069	3.21 ± 0.075
KLNTFENDLLQEFDSEL [SMC3]	3.3 ± 0.11	3.03 ± 0.1	3.22 ± 0.13	2.78 ± 0.1
RKASCIWLLSYIQYLGH [ECM29]	2.15 ± 0.046	2.32 ± 0.054	1.88 ± 0.06	1.96 ± 0.036
IEPQVINYLALNAANYN [ECM29]	2.63 ± 0.12	2.15 ± 0.24	3.37 ± 0.13	2.33 ± 0.078
